Literature values in PMC5193440.

System: Cys
Settings: not stated

Row | Substance | pKa
1 | DsbA1 (WpDsbA1, alpha-DsbA1), wild type (Wolbachia pipientis) | 4.7 ± 0.08
2 | DsbA (KpDsbA) (Klebsiella pneumoniae) | 3.2
3 | DsbA (MtbDsbA, Rv2969c) (Mycobacterium tuberculosis) | 4.2 ± 0.2
4 | DsbA (VcDsbA, TcpG) (Vibrio cholerae) | 5.1
5 | DsbA1 (NmDsbA1) (Neisseria meningitidis) | 3.0
6 | DsbA (SeDsbA) (Salmonella enterica (inferred from the abbreviation; the article only calls it an enterobacterial DsbA)) | 3.3 ± 0.06
7 | DsbA (SaDsbA) (Staphylococcus aureus) | 3.4 ± 0.07

Molecular target: Cys30 (UniProt position 49, FFSFFCPHCYQ)
Settings: reduced active site (dithiol form)

Row | Substance | pKa
8 | DsbA (thiol:disulfide interchange protein, EcDsbA) (Escherichia coli) | 3.3 ± 0.09
